From article PMC9371650 (Proceedings of the National Academy of Sciences of the …, 2022)

T1: ectodomain of glycoprotein B (ect-gB), Epstein-Barr virus (Epstein-Barr virus (HHV-4), strain M81 …)
T1 chain 1: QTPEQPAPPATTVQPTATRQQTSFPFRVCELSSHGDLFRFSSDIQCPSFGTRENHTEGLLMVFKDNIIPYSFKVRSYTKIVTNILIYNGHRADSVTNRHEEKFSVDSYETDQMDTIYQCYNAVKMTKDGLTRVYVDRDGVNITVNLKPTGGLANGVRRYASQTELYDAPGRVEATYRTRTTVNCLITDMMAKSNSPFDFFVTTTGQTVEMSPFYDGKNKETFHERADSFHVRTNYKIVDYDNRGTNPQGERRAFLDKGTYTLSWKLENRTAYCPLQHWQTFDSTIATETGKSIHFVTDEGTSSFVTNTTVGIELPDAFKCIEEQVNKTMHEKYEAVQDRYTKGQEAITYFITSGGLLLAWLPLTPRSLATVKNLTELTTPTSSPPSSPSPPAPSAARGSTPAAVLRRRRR
T1 chain 2: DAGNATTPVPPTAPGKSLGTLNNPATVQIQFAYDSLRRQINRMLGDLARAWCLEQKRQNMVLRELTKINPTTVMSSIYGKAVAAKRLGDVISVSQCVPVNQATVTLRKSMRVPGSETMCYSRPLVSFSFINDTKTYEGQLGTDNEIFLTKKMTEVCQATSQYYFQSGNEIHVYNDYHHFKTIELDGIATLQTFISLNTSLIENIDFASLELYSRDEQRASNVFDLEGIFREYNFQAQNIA

B1: 3A3, rabbit anti-EBV gB neutralizing monoclonal antibody (antibody, V domains shown)
VH: QSVKESGGRLVTPGTPLTLTCTVSGFSLSSYAMSWVRQAPGKGLEYIGVIYASGSTYYASWAKGRFTISRTATTVDLKITSPTTEDTATYFCGRGVSTNMWGPGTLVTVSS
VL: DLVMTQTPSSVSAAVGGTVTIKCQASQSLGGGLAWYQQKPGQRPKLLIYSASTLESGVPSRFRGSGSGTEFTLTISDLECADAATYYCQSAYGPTSNGLFNAFGGGTKVVIK
B2: antigen binding fragment of 3A3 (3A3Fab) (Fab, V domains shown)
VH: B1 VH
VL: B1 VL
B3: 3A5, rabbit anti-EBV gB neutralizing monoclonal antibody (antibody, V domains shown)
VH: QSVKESGGRLVTPGTPLTLTCTVSGFSLSSYEMGWVRQAPGEGLEWIGTISTGGSSYYASWAKGRFTISRTSTTVDLKMTSLTTADTATYFCARGYGGYGIGAGYFNIWGPGTLVTVSS
VL: ALVMTQTPSSVSEPVGGTVTIKCQASQSISSYLAWYQRKPGQRPKLLIYGTSTLASGVPSRFIGSGSGTDYTLTISDLECDDAATYYCQQGFSTSNVYNSFGGGTKVDIK
B4: antigen binding fragment of 3A5 (3A5Fab) (Fab, V domains shown)
VH: B3 VH
VL: B3 VL
B5: 1E12 (antibody, V domains shown)
VH: QSVKESGGRLVTPGTPLTLTCTVSGIDLSTYVMTWVRQAPGKGLECIGIIGYGGSTYYASWATGRFTISKTSTTVDLRMTSLTTEDTATYFCARGVSSNLYRGMNLWGQGTLVTVSS
VL: ALVMTQTPSPVSAAVGGTVSISCQSSPSVYSNYLSWYQQKPGQPPKLLIYETSKLESGVPSRFSGSGSGTQFTLTISGVQCDDAATYYCAGGYSGISDTFAFGGGTKVDIK

Experiments:
[1] = target: ectodomain of glycoprotein B (ect-gB), Epstein-Barr virus (Epstein-Barr virus); assay: native gel or EMSA
[2] = target: virion-encoded gB expressed on EBV-positive Akata cells (Epstein-Barr virus (HHV-4), strain …, UniProt P03188, strain); assay: cell-based or functional assay
[3] = target: T1, ectodomain of glycoprotein B (ect-gB), …; assay: SPR
[4] = target: T1, ectodomain of glycoprotein B (ect-gB), …

Row | Molecule | IC50 of neutralization of Akata-EBV infection of HNE1 epithelial cells [2] [µg/mL] | IC50 of neutralization of CNE2-EBV infection of Akata B cells [2] [µg/mL] | Kd [3] [nM] | other results
1 | ectodomain of glycoprotein B (ect-gB), Epstein-Barr virus (domain or fragment) |  |  |  | stoichiometry N [1]: 3
2 | B1 | 0.08 | 2.97 |  | 
3 | B2 |  |  | ~3.49 | 
4 | B3 | 0.31 | 4.9 |  | 
5 | B4 |  |  | ~3.93 | 
6 | B5 |  |  |  | binding result [4]: binds
